Positions count from the first letter of the chain named. Ends that are not written are not given here.
T1: BSA-modified peptide antigen FFTYHIRHGEVHC (SEQ ID NO: 1) (human, also: BSA carrier conjugate)
T1 construct: also called peptide corresponding to positions 633-644 of PAD4
T1 peptide: FFTYHIRHGEVHC

B1: P1 (antibody, V domains shown)
VH: AVTLDESGGGLQTPGGGLSLICKASGFHMRSYAMNWVRQAPGKGLEFVAGIDNSGRYRNYGAAVKGRATISRDNGQSTVRLQLNNLRAEDTGIYYCAKNFDVGGDGCDWSSGCIDAWGHGTEVIVS
VL: ASTQPSSVSANPGETVKITCSGGSSTYYGWYQQKSPGSAPVTVIYQNTKRPSGLSSRFSGSKSGSTATLTITGVQAEDEAVYFCGGYDTRTYAGIFGAGTTLTVL
notes: Chicken variable regions recombined into mouse chimeric antibody (IgG1) expression vectors; also called anti-PAD4 antibody P1; P1 etc
B2: P2 (antibody, V domains shown)
VH: B1 VH with G17A, I21V
VL: B1 VL with S6A, K49N, G53D, L54I, S55P, T89R, R90S, T91N
notes: Chicken variable regions recombined into mouse chimeric antibody (IgG1) expression vectors; also called anti-PAD4 antibody P2; P1 etc
B3: P4 (antibody, V domains shown)
VH: B1 VH with H28S, S54T, R58T, N59G, A62S, I93T, F100V, G103A, D105S, I124T
VL: B1 VL
notes: Chicken variable regions recombined into mouse chimeric antibody (IgG1) expression vectors; also called anti-PAD4 antibody P4; P1 etc
B4: P3 (antibody, V domains shown)
VH: B1 VH with F27S, H28T, M29I, R58T, F100V, G103A, D105Y, A116T
VL: B1 VL with S6A, Q46E, K49N, G53D, L54I, S55P, E77D, T89R, R90T, T91N
notes: Chicken variable regions recombined into mouse chimeric antibody (IgG1) expression vectors; also called anti-PAD4 antibody P3; P1 etc

biological target: T2, human PAD4 (Peptidylarginine deiminase 4) (human, UniProt Q9UM07 1-663); experiment: SPR (Biacore T200), antibody captured on rabbit anti-mouse polyclonal antibody on CM5 chip, human PAD4 as analyte
T2 construct: also called full-length recombinant human PAD4 protein; active PAD4
T2 sequence (Q9UM07 whole entry): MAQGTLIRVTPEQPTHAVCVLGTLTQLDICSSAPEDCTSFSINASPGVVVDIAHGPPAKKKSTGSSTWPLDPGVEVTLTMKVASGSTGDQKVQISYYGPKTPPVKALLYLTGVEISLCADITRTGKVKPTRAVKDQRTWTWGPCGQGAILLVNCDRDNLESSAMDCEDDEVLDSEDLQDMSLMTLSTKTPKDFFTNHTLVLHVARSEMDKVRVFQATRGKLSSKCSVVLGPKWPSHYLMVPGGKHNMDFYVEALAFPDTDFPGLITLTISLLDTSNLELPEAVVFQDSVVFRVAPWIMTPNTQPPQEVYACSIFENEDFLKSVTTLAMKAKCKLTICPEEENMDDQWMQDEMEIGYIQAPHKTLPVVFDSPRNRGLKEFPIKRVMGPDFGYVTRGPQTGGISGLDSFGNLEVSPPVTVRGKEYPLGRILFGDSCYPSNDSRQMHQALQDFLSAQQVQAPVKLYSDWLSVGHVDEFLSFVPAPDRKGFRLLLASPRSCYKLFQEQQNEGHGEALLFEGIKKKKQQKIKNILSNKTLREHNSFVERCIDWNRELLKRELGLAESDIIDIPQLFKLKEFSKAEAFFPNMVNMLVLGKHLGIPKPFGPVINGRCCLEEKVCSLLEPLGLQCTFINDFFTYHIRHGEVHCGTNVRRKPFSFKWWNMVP

Binder	Kd [nM]
B1	73
B2	31
B3	15
B4	24

biological target: T2, human PAD4 (Peptidylarginine deiminase …); experiment: cell-based or functional assay

Binder	inhibition rate of citrullinating activity of active PAD4 (BAEE substrate, colorimetric) [%]
B1	63
B2	62
B3	82
B4	80

Biological target: T1, BSA-modified peptide antigen …
Experiment: ELISA, culture supernatant of CHO cells on immobilised BSA-modified peptide

Binder	binding result
B2	binds
B4	binds
